1 molecule from paper PMC4227796 can be followed below.

The target in data set [1] is T1, RecQL4_N388 (Homo sapiens, UniProt O94761 1-388).
T1 sequence: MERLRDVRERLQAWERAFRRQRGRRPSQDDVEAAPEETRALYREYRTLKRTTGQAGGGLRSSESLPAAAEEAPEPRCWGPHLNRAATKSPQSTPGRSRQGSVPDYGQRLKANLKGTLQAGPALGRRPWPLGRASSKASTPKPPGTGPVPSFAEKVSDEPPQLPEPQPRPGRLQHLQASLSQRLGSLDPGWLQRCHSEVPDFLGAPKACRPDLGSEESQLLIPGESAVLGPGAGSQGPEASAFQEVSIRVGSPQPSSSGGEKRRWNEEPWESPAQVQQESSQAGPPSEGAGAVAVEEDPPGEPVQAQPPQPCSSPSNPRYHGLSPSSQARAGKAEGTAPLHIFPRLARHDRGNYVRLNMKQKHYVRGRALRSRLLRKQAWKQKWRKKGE
The data set is described as follows: EMSA. A general note: In EMSA bound probe runs differently from free probe, usually more slowly.

The target of data set [2] is T2, RecQL4_FL (Homo sapiens, UniProt O94761 1-1208).
T2 sequence: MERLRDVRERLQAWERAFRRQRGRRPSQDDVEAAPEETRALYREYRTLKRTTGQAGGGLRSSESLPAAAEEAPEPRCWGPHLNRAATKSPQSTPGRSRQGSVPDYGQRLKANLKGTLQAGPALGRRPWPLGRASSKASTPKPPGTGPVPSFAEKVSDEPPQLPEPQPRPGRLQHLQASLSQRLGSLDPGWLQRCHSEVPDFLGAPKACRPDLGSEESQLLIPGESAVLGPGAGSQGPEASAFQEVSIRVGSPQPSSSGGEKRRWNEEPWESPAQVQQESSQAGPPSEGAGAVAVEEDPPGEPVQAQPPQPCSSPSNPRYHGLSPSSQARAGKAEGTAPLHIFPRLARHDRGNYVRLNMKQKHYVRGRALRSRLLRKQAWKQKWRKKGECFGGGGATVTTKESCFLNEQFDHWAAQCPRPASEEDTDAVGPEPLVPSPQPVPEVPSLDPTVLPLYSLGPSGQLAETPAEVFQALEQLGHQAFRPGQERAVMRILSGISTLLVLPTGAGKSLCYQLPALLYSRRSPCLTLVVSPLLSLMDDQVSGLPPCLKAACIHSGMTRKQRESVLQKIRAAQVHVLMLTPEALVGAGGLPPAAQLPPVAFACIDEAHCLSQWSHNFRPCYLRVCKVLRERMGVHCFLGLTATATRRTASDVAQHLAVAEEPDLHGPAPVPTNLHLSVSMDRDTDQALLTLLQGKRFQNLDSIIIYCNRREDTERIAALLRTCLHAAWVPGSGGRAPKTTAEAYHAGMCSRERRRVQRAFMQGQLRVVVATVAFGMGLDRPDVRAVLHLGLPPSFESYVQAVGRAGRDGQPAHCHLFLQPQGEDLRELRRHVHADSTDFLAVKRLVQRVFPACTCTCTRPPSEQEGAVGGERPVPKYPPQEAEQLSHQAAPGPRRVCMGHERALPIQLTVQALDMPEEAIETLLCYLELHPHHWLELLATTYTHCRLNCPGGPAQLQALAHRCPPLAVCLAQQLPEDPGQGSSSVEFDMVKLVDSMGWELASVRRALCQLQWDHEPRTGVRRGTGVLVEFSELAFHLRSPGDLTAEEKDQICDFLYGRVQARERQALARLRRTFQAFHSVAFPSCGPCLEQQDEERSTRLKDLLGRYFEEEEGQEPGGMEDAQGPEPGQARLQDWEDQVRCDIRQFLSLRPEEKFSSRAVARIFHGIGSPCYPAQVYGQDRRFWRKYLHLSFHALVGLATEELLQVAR
The data set is described as follows: EMSA.

B1: LB2_GC (ssDNA)
DNA: GCAGAGGCCCGGCACGAGCTTCCCC
On to B1, for which the binding result in data set [1] and in data set [2] was “binds” throughout.
